Here are results for eight molecules from patent publication US20180355034A1 (published 2018).

The target in assay [1] is Recombinant human CD16aV (V polymorphism at position 158 of CD16) (human, UniProt P08637 17-208). The experiment in a line: SPR; produced in HEK. On the technique in general: In SPR one partner is held on a chip, and binding of the other changes the refractive index at the surface.
In assay [2] the target is Recombinant human FcRn (FcRn alpha and beta2-microglobulin) (human, UniProt P55899 24-290; P61769 21-119). Description: SPR; produced in HEK.
Recombinant human FcRn (FcRn alpha and beta2-microglobulin), sequence (P55899 24-290, chain 1 of 2): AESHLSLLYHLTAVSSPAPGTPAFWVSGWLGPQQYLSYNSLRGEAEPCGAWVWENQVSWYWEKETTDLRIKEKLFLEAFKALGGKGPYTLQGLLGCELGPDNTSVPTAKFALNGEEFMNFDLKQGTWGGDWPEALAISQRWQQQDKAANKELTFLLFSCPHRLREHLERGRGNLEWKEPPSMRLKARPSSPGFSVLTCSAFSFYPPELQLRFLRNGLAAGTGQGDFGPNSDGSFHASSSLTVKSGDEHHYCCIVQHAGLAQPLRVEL
Recombinant human FcRn (FcRn alpha and beta2-microglobulin), sequence (P61769 21-119, chain 2 of 2): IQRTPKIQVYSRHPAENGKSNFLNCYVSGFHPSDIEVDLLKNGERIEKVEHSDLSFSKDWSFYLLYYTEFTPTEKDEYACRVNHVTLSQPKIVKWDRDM

One may read the Kd as the equilibrium constant for the complex coming apart.

Recombinant human CD16aV (V polymorphism at position 158 of CD16), sequence (P08637 17-208 F176V): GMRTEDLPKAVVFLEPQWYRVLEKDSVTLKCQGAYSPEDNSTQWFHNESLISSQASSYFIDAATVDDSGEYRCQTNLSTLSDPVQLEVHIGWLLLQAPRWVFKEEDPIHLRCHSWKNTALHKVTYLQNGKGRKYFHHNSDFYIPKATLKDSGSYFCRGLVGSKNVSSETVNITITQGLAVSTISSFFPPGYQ

B1: A3A-184A (K334N/P352S/A378V/V397M) Fc fragment (other)
chain: DKTHTCPPCPAPELLGGPSVFLFPPKPKDTLMISRTPEVTCVVVDVSHEDPEVKFNWYVDGVEVHNAKTKPREEQYNSTYRVVSVLTVLHQDWLNGKEYKCKVSNKALPAPIENTISKAKGQPREPQVYTLSPSRDELTKNQVSLTCLVKGFYPSDIVVEWESNGQPENNYKTTPPMLDSDGSFFLYSKLTVDKSRWQQGNVFSCSVMHEALHNHYTQKSLSLSPGK
Consider B1, for which the dissociation constant Kd in assay [1] came out at 228 nM; in assay [2], 11.7 nM.

B2: T5A-74I (T260A/N315D/A330V/N361D/A378V/N434Y) Fc fragment (other)
chain: DKTHTCPPCPAPELLGGPSVFLFPPKPKDTLMISRTPEVACVVVDVSHEDPEVKFNWYVDGVEVHNAKTKPREEQYNSTYRVVSVLTVLHQDWLDGKEYKCKVSNKALPVPIEKTISKAKGQPREPQVYTLPPSRDELTKDQVSLTCLVKGFYPSDIVVEWESNGQPENNYKTTPPVLDSDGSFFLYSKLTVDKSRWQQGNVFSCSVMHEALHYHYTQKSLSLSPGK
As for B2, the Kd in assay [1] amounted to 3510 nM; in assay [2] it was 32.5 nM.

B3: T5A-74L (E294A/N315D/A330V/N361D/A378V/N434Y) Fc fragment (other)
chain: DKTHTCPPCPAPELLGGPSVFLFPPKPKDTLMISRTPEVTCVVVDVSHEDPEVKFNWYVDGVEVHNAKTKPREAQYNSTYRVVSVLTVLHQDWLDGKEYKCKVSNKALPVPIEKTISKAKGQPREPQVYTLPPSRDELTKDQVSLTCLVKGFYPSDIVVEWESNGQPENNYKTTPPVLDSDGSFFLYSKLTVDKSRWQQGNVFSCSVMHEALHYHYTQKSLSLSPGK
Regarding B3, the results for the equilibrium dissociation constant (Kd) in assay [1] and in assay [2] were 4400 nM and 37.9 nM, respectively.

B4: T5A-74M (Y296W/N315D/A330V/N361D/A378V/N434Y) Fc fragment (other)
chain: DKTHTCPPCPAPELLGGPSVFLFPPKPKDTLMISRTPEVTCVVVDVSHEDPEVKFNWYVDGVEVHNAKTKPREEQWNSTYRVVSVLTVLHQDWLDGKEYKCKVSNKALPVPIEKTISKAKGQPREPQVYTLPPSRDELTKDQVSLTCLVKGFYPSDIVVEWESNGQPENNYKTTPPVLDSDGSFFLYSKLTVDKSRWQQGNVFSCSVMHEALHYHYTQKSLSLSPGK
As for B4, the dissociation constant Kd in assay [1] was found to be 308 nM; in assay [2], 27.3 nM.

B5: T5A-74K (K290Y/N315D/A330V/N361D/A378V/N434Y) Fc fragment (other)
chain: DKTHTCPPCPAPELLGGPSVFLFPPKPKDTLMISRTPEVTCVVVDVSHEDPEVKFNWYVDGVEVHNAKTYPREEQYNSTYRVVSVLTVLHQDWLDGKEYKCKVSNKALPVPIEKTISKAKGQPREPQVYTLPPSRDELTKDQVSLTCLVKGFYPSDIVVEWESNGQPENNYKTTPPVLDSDGSFFLYSKLTVDKSRWQQGNVFSCSVMHEALHYHYTQKSLSLSPGK
Regarding B5, the equilibrium dissociation constant (Kd) in assay [1] came out at 3180 nM; in assay [2], 16.6 nM.

B6: A3A-105D (G316D/K326E/A378V) Fc fragment (other)
chain: DKTHTCPPCPAPELLGGPSVFLFPPKPKDTLMISRTPEVTCVVVDVSHEDPEVKFNWYVDGVEVHNAKTKPREEQYNSTYRVVSVLTVLHQDWLNDKEYKCKVSNEALPAPIEKTISKAKGQPREPQVYTLPPSRDELTKNQVSLTCLVKGFYPSDIVVEWESNGQPENNYKTTPPVLDSDGSFFLYSKLTVDKSRWQQGNVFSCSVMHEALHNHYTQKSLSLSPGK
Consider B6, for which the Kd in assay [1] amounted to 1210 nM; in assay [2], 231 nM.

B7: T5A-74J (E258I/N315D/A330V/N361D/A378V/N434Y) Fc fragment (other)
chain: DKTHTCPPCPAPELLGGPSVFLFPPKPKDTLMISRTPIVTCVVVDVSHEDPEVKFNWYVDGVEVHNAKTKPREEQYNSTYRVVSVLTVLHQDWLDGKEYKCKVSNKALPVPIEKTISKAKGQPREPQVYTLPPSRDELTKDQVSLTCLVKGFYPSDIVVEWESNGQPENNYKTTPPVLDSDGSFFLYSKLTVDKSRWQQGNVFSCSVMHEALHYHYTQKSLSLSPGK
For B7, the dissociation constant Kd in assay [1] was determined as 2820 nM; in assay [2] it was 30.2 nM.

B8: J3B-118A (A378V/P396L/N421T) Fc fragment (other)
chain: DKTHTCPPCPAPELLGGPSVFLFPPKPKDTLMISRTPEVTCVVVDVSHEDPEVKFNWYVDGVEVHNAKTKPREEQYNSTYRVVSVLTVLHQDWLNGKEYKCKVSNKALPAPIEKTISKAKGQPREPQVYTLPPSRDELTKNQVSLTCLVKGFYPSDIVVEWESNGQPENNYKTTPLVLDSDGSFFLYSKLTVDKSRWQQGTVFSCSVMHEALHNHYTQKSLSLSPGK
Take B8: the Kd in assay [1] is 1840 nM.
